Data as given in PMC4164784, “4E-BPs require non-canonical 4E-binding motifs and a lateral surface of eIF4E to repress translation” (Nature Communications, 2014).

How the values were obtained:
[1] = molecular target: T1, SHN-eIF4E (full length, WT) (Drosophila melanogaster, UniProt P48598-2 1-248); assay: pull-down; 'kinetic assay': 1 μM purified SHN-eIF4E–GST-eIF4G complex prebound to Strep-Tactin beads, challenged with 5 μM (CUP, 4E-T) or 10 μM (Thor, eIF4G) competitor for the indicated times; 4 °C; conditions: both partners purified
T1 construct: eIF4E, Drosophila melanogaster; also called SHN-tagged eIF4E; SNH-tagged eIF4E; not shown: Strep-NusA-His (SHN), N-terminal, kept
T1 sequence (looked up): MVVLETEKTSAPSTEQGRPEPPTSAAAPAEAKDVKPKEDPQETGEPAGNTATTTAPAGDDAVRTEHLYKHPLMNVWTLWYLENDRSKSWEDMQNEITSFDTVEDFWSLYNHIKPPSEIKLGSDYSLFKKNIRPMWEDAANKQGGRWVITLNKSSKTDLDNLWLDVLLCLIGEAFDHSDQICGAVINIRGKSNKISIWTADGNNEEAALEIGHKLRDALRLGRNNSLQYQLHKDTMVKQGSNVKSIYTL

[2] = molecular target: T2, eIF4E (residues 69–248) II-AA, purified (Drosophila melanogaster, UniProt P48598-2 69-248, Ile96 to Ala (II-AA) | Ile112 to Ala (II-AA)); assay: ITC; VP-ITC, 20 °C; eIF4E (69–248, WT or mutant, 1–20 μM) in the cell, tenfold concentrated GB1-stabilized peptides titrated in; 20 mM Na-phosphate pH 7.0, 150 mM NaCl; one-site binding model; conditions: both partners purified
T2 construct: eIF4E, Drosophila melanogaster, residues 69–248; also called eIF4E (II-AA); not shown: His6, N-terminal, cleaved
T2 sequence (looked up): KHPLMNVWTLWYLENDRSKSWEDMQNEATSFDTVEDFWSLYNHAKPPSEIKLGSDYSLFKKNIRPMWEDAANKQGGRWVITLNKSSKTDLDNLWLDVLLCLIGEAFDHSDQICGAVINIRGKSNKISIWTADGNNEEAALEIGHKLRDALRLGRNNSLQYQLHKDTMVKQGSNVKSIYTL

[3] = molecular target: T3, eIF4E (residues 69–248), purified (Drosophila melanogaster, UniProt P48598-2 69-248); assay: as above; conditions: both partners purified
T3 construct: eIF4E, Drosophila melanogaster, residues 69–248; the methods say the tag was cleaved with HRV3C; also called truncated eIF4E; eIF4E trunc; not shown: His6, N-terminal, cleaved
T3 sequence (looked up): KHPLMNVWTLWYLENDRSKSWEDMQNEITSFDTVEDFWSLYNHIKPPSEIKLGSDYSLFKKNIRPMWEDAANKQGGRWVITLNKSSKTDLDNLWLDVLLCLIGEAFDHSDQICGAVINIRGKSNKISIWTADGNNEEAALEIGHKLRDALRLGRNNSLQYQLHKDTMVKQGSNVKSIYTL

[4] = system: firefly luciferase (F-Luc) reporter in S2 cells; assay: Translation repression assay, F-Luc reporter in S2 cells; type: cell-based, Drosophila melanogaster; conditions: coexpression (HA-CUP 1–402 0.05–0.2 μg, HA-Thor 0.1–0.5 μg plasmid; mutants at highest), 3 days, F-Luc activity normalized to mRNA, three independent experiments
Experimental: S2 cells were transfected in 6-well plates using Effectene transfection reagent (Qiagen) according to the manufacturers protocol. The transfection mixtures contained: 0.1 μg of F-Luc reporter plasmid (F-Luc-V5), 0.3 μg of control RNA reporter, and increasing amounts of plasmids expressing HA-CUP (fragment 1–402; 0.05–0.2 μg) and HA-Thor (full length, 0.1–0.5 μg). The plasmids expressing the corresponding mutants or the HA peptide control were transfected at the highest concentration. In all the experiments, the cells were collected three days after transfection. The F-Luc activity was measured using the Dual-Luciferase reporter assay system (Promega). The northern blotting was performed as previously described. The F-Luc mRNA levels were determined by northern blotting and were normalized to those of the control RNA. The normalized F-Luc mRNA levels were then used to normalize the F-Luc activity, to obtain translation efficiencies.

[5] = system: eIF4E II-AA (lateral surface mutant); assay: Coimmunoprecipitation with HA-eIF4E II-AA in S2 cells; type: cell-based, Drosophila melanogaster; conditions: HA-eIF4E II-AA vs WT, western blot
Experimental: (§1) The coimmunoprecipitations assays were performed as previously described. For the pull downs using m^7GTP beads, 25 μl of immobilized γ-aminophenyl-m^7GTP (C10-spacer—Jena Bioscience) beads was added to the cell lysates and the mixtures were rotated for 1 h at 4 °C. The beads were washed three times with NET buffer (50 mM Tris (pH 7.4), 150 mM NaCl, 1 mM EDTA and 0.1% Triton X-100). The bound proteins were eluted with 2 × SDS–polyacrylamide gel electrophoresis (SDS–PAGE) sample buffer and analyzed by western blotting (WB). All of the WB experiments were developed with the ECL western blotting detection system (GE Healthcare) as recommended by the manufacturer. The antibodies used in this study are listed in Supplementary Table 2.

[6] = system: eIF4E II-AA mutant (full length); assay: GST/MBP pull-down of full-length eIF4E II-AA mutant, coexpressed in E. coli; type: binding, Drosophila melanogaster; conditions: recombinant CUP (311–440), Thor (full length), 4E-T (1–58) or eIF4G (578–650), WT or mutant, SDS–PAGE
Experimental: For the pull-down assays shown in Fig. 3 and Supplementary Fig. 6a, the full-length His6- or SHN-tagged eIF4E (WT or II-AA mutant) was coexpressed with GST or MBP-tagged protein fragments, including CUP (residues 311–440), Thor (full length), 4E-T (residues 1–58) or eIF4G (residues 578–650) in E. coli BL21 (DE3) STAR cells in autoinducing medium[44] overnight at 20 °C. The cells were resuspended in lysis buffer (20 mM Tris–HCl (pH 7.5), 100 mM NaCl, 1 mM DTT) supplemented with EDTA-free protease inhibitor (Roche) and lysed by sonication. The cleared lysates were incubated for 1 h with 20 μl of Protino Glutathione Agarose 4B beads (Macherey-Nagel) or amylose resin (New England Biolabs). The beads were washed three times with lysis buffer, and the bound proteins were eluted with lysis buffer containing 25 mM L-glutathione or 25 mM maltose for 15 min. The proteins were analyzed by 10–15% SDS–PAGE followed by Coomassie blue staining.

endogenous eIF4E = assay: Coimmunoprecipitation / m7GTP pull-down with endogenous eIF4E in S2 cell lysates; type: cell-based, Drosophila melanogaster; conditions: western blot
Experimental: as §1
Thor and 4E-T) or HA-eIF4G and endogenous eIF4E in S2 cell lysates. The proteins were immunoprecipitated using a polyclonal anti-eIF4E antibody (α-4E). The pre-immune (Pre-I) serum and an HA-tagged version of MBP served as negative controls. The inputs (1%) and immunoprecipitates (10%) were analyzed by western blotting using anti-HA and anti-eIF4E antibodies. (b,c) The interaction of HA-tagged full length 4E-BPs (CUP, Thor and 4E-T) and eIF4G with endogenous eIF4E was analyzed by coimmunoprecipitation using anti-HA antibodies (b) or by pull-down using m7GTP-Sepharose beads (c). HA-MBP served as a negative control. The inputs (10%) and immunoprecipitates (30%) were analyzed by western blotting using anti-HA and anti-eIF4E antibodies. (d) Western blot showing the interaction of HA-Thor (full-length either wild-type or mutants) with endogenous eIF4E in S2 cells. The proteins were immunoprecipitated using anti-HA antibodies and analyzed as described in (b,c). (e) Western blot showing the interaction of HA-4E-T (residues 1–511, wild-type or mutants) with endogenous eIF4E. The proteins were immunoprecipitated using anti-HA antibodies and analyzed as described in (b,c). The size markers (kDa) are shown to the right of each panel. Mutants are described in Supplementary Table 1.

[7] = system: endogenous eIF4E and HA-tagged 4E-BPs in S2 cells; assay: Immunofluorescence localization in S2 cells; type: cell-based, Drosophila melanogaster
Experimental: S2 cells expressing HA-tagged versions of CUP, Thor and 4E-T or the indicated mutants were treated with Leptomycin B (100 nM; Sigma) or methanol as a control for 12 h. After the LMB treatment, the cells were allowed to adhere to poly-D-lysine–coated coverslips for 15 min and were fixed with 2% paraformaldehyde for 10 min. The cells were then permeabilized with 0.1% Triton X-100 in PBS (10 min) and stained with affinity-purified monoclonal anti-HA (Covance 1:1,000) and polyclonal anti-eIF4E (1:2,000) antibodies in PBS containing 1% BSA for 1 h. Alexa Fluor 594-labeled goat anti-rabbit and 488-labeled anti-mouse antibodies (Invitrogen) were used at dilutions of 1:1,000 and 1:2,000, respectively. The cells were mounted using Fluoromount-G (Southern Biotech). The images were acquired at room temperature using a confocal microscope (TCS SP2; Leica) that was fitted with a Plan-Apochromat × 100 NA 1.40 oil immersion objective and a series of three photomultipliers (Hamamatsu Photonics) controlled with the Leica confocal software (version 2.61). The images were prepared using Photoshop (Adobe). […]
Thor) independent experiments. […] Confocal fluorescent […]
micrographs of fixed S2 cells expressing HA-4E-T and GFP-Tral. The localization of HA-4E-T was determined by indirect immunofluorescence using an anti-HA antibody. The merged pictures show the HA signal in red and the GFP-Tral signal in green. Bar: 5 μm.

| Molecule | time to 50% dissociation of prebound GST-eIF4G (tenfold molar excess of competitor) [1] | Kd [2] | dH [2] | stoichiometry N [2] | Kd [3] | dH [3] | stoichiometry N [3] | time to 50% dissociation of prebound GST-eIF4G (fivefold molar excess of competitor) [1] | repression of F-Luc reporter expression (in words) [4] | half-life of the eIF4E–eIF4G complexes (tenfold molar excess of competitor) [1] | association with eIF4E II-AA (in words) [5] | binding to eIF4E II-AA mutant (in words) [6] | interaction with endogenous eIF4E (in words) (endogenous eIF4E) | nuclear accumulation of endogenous eIF4E upon LMB (in words) ([7]; S2 cells expressing 4E-BP or mutant, LMB 100 nM, 12 h) | localization of endogenous eIF4E (in words) ([7]; S2 cells overexpressing 4E-BP or mutant, −LMB) | nuclear accumulation of 4E-BP upon LMB (in words) ([7]; S2 cells, LMB 100 nM, 12 h) | localization of the 4E-BP (in words) ([7]; S2 cells, steady-state, −LMB) |
| --- | --- | --- | --- | --- | --- | --- | --- | --- | --- | --- | --- | --- | --- | --- | --- | --- | --- |
| eIF4G peptide (residues 578–650) fused C-terminally to GB1 (domain or fragment, Drosophila melanogaster, UniProt O61380 578-650, looked up, eIF4G, Drosophila melanogaster, residues 578–650 (methods and legends); source: E. coli BL21 Star (DE3), purified (amylose, TEV cleavage, anion exchange, SEC); not shown: MBP, N-terminal, cleaved; GB1, C-terminal, kept) PETTLNDKQDSTDLKVKVSAKISSIINYNEGQWSPNNPSGKKQYDREQLLQLREVKASRIQPEVKNVSILPQP | 4 h | 40 nM | -16.24 ± 0.04 kcal/mol | 1.03 ± 0.01 | 17 nM | -18.5 ± 2 kcal/mol | 0.99 ± 0.08 | – | – | – | – | – | – | – | – | – | – |
| RYSKVDLLALRYEGKSRQRPQCSTRLELQTLGFWKI (domain or fragment) [4E-T C+NC peptide fused C-terminally to GB1] | – | 8.8 nM | -12.9 ± 0.3 kcal/mol | 1.03 ± 0.04 | 5.6 nM | -22.8 ± 3 kcal/mol | 0.95 ± 0.01 | 22 min | – | – | – | – | – | – | – | – | – |
| CUP N-terminal fragment: CUP residues 1–402 (protein, UniProt Q9VMA3 1-402, looked up, fragment, HA tag) MQMAEAEQENGAGALKIATNAGATDRPAHQQLPLPVEDQQDEVLTPAEKGKFEYPPPPPPPTPVQAPLATKATALNASQEHDDDEANSEKWEDPCAPPPPPPLPTSAFLATGLGYLKLPAFKLKDALEKAITKLEANKRTLKASPESSRSIKNKNVVALEMLPRRSNPETIGDGSMLASTSTAVMLQTKKPAVIVEMERRCKIINLLAKQNQILESISGEAIPMHGPSKHLHEDEGLTLQVLSARASTPYTQPSSMLSCTAVSCDLEHDSPRKQVASKEAVPEQQSSQVQQKRPPSTGIHKPGSLRAPKAVRPTTAPVVSSKPVKSYTRSRLMDIRNGMFNALMHRSKESFVMPRIATCDDIELEGRLRRMNIWRTSDGTRFRTRSTTANLNMNNNNNNECM | – | – | – | – | – | – | – | – | inhibited the expression of the F-Luc reporter in a dose-dependent manner | – | – | – | – | – | – | – | – |
| CUP C+NC peptide fused C-terminally to GB1 (domain or fragment, Drosophila melanogaster, CUP, Drosophila melanogaster, canonical and non-canonical 4E-BMs; source: E. coli BL21 Star (DE3), purified (amylose, HRV3C cleavage, SEC); not shown: MBP, N-terminal, cleaved; GB1, C-terminal, kept) STGIHKPGSLRAPKAVRPTTAPVVSSKPVKSYTRSRLMDIRNGMFNALMHRSKESFVMPRIATCDDIELEGRLRRMNIWRTSDGTRFRTRSTTANLNMNNNNNNECMPAFFKNKNKPNLISDESIIQSQP | – | 50 nM | -18.6 ± 0.7 kcal/mol | 0.98 ± 0.01 | 9.1 nM | -34.5 ± 0.35 kcal/mol | 1.05 ± 0.02 | 2.5 ± 0.5 min | – | – | – | – | – | – | – | – | – |
| TKLIYERAFMKNLRGSPLSQTPPSNVPSCLLRGT (domain or fragment) [Thor C+NC peptide fused C-terminally to GB1] | – | 470 nM | -7.6 ± 0.3 kcal/mol | 0.97 ± 0.01 | 1.4 nM | -16.8 ± 1 kcal/mol | 0.95 ± 0.02 | – | – | 37 ± 9 min | – | – | – | – | – | – | – |
| Thor: Dm Thor full length (1–117), Q9XZ56, ortholog of 4E-BP1–3 (protein, left off: GFP, end not stated, kept) MSASPTARQAITQALPMITRKVVISDPIQMPEVYSSTPGGTLYSTTPGGTKLIYERAFMKNLRGSPLSQTPPSNVPSCLLRGTPRTPFRKCVPVPTELIKQTKSLKIEDQEQFQLDL | – | – | – | – | – | – | – | – | inhibited the expression of the F-Luc reporter in a dose-dependent manner | – | disrupted the association | pulled down comparable amounts of WT and mutant eIF4E | interacted with endogenous eIF4E | endogenous eIF4E accumulated in the nucleus | evenly distributed in the cytoplasm | partial nuclear accumulation | distributed evenly throughout the cytoplasm |
